Measurements published in US20140271602, “NUCLEOTIDE-SPECIFIC RECOGNITION SEQUENCES FOR DESIGNER TAL EFFECTORS” (THE BROAD INSTITUTE INC., published 2014).

How the values were obtained:
[1] = target: T1, TALE1-NH (CACNA1C site 1 activator) (Xanthomonas (engineered), UniProt P14727 SEQ:1-983); assay: cell_activity; HEK 293FT, endogenous CACNA1C mRNA; reporter 1.9x that of NK; settings: tags: VP64, 2A-GFP
T1 chain: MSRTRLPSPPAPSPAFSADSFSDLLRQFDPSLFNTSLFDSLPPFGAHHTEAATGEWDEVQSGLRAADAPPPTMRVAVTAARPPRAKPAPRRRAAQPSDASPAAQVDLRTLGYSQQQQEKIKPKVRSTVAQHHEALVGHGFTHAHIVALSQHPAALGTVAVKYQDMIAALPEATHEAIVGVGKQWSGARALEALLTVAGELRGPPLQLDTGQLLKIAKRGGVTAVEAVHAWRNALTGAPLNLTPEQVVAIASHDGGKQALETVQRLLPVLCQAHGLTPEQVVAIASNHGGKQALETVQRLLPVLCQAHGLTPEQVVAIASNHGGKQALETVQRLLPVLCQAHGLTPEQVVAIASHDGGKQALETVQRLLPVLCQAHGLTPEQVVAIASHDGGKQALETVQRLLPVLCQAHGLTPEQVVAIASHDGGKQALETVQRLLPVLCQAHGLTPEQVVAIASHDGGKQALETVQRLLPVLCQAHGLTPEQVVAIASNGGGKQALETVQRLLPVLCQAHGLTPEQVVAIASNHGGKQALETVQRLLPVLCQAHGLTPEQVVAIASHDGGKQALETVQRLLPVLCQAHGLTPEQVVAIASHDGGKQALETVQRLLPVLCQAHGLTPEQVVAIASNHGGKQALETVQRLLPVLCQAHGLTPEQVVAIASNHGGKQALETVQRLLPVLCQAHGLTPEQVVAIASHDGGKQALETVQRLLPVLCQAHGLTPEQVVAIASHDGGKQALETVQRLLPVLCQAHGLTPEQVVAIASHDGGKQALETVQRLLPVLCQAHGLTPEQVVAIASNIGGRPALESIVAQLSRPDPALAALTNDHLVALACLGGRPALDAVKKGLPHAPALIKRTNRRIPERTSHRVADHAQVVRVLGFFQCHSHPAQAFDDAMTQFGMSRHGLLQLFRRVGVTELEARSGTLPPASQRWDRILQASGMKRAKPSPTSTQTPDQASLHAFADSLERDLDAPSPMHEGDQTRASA

[2] = target: T2, TALE1-NN (CACNA1C site 1 activator) (Xanthomonas (engineered), UniProt P14727 SEQ:1-983); assay: cell_activity; HEK 293FT, endogenous CACNA1C mRNA; settings: tags: VP64, 2A-GFP
T2 chain: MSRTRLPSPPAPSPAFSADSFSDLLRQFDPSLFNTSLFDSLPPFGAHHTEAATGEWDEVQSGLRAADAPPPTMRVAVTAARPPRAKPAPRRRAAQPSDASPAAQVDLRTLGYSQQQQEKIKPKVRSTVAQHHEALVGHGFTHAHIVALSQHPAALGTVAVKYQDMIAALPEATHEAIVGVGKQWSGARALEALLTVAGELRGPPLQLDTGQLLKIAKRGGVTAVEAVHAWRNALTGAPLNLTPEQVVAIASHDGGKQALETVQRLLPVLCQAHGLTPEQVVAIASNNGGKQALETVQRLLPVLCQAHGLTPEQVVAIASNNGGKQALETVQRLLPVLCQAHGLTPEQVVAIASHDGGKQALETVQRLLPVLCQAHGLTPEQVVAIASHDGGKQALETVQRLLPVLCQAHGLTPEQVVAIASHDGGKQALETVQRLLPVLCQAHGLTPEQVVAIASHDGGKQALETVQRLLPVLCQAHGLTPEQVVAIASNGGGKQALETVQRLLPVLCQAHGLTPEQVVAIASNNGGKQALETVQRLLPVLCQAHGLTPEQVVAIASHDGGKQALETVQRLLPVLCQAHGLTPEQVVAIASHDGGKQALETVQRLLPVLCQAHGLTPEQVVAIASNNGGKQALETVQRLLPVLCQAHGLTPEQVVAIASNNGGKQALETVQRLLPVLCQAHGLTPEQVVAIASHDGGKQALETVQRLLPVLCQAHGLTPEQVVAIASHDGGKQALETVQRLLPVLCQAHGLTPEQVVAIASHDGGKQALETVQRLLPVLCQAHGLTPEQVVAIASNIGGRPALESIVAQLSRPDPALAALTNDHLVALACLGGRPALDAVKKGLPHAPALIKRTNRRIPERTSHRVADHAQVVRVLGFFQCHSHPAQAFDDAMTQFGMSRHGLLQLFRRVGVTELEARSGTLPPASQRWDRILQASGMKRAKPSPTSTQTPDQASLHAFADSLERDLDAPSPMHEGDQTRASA
Experimental: Changes in mRNA are measured using qRT-PCR as described previously. VP64, VP64 transcription activation domain. All results are collected from three independent experiments in HEK 293FT cells. Error bars indicate s.e.m.; n=3. FIG. 19(b) discloses SEQ ID NOS 63 and 62, respectively, in order of appearance.
Using qRT-PCR, the performance of NN, NK, NH, and HN for targeting endogenous genomic sequences was further compared. The ability of NN-, NK-, NH-, and HN-TALEs to activate CACNA1C transcription by targeting the two endogenous target sites was tested (FIG. 19b). […] Both TALE 1-NH and TALE2-NH were able to achieve similar levels of transcriptional activation as TALE1-NN and TALE2-NN (˜5 and ˜3 folds of activation for targets 1 and 2, respectively) and twice more than TALE-NK and TALE2-NK (FIG. 19b). […] On the other hand, based on all the results from specificity and endogenous activity tests, the RVD NH seems to be a more suitable substitute for NN than NK when higher targeting specificity is desired, as it also provides higher levels of biological activity. Further testing using additional endogenous genomic targets helps validate the broad utility of NH as a highly specific G-targeting RVD.
For the endogenous gene transcriptional level assay to test the biological activities of TALE activators and TALE repressors, HEK 293FT cells were seeded into 24-well plates. […]

B1: CACNA1C site 1 (dsDNA)
DNA 1: TCGGCCCCTGCCGGCCCA
DNA 2: TGGGCCGGCAGGGGCCGA
activity [1]: ~5 fold activation | activity [2]: ~5 fold activation
